Biological target: T1, Pf Cmr2dHD (Pf1129), HD-domain-deleted Cmr2, N-terminally poly-histidine tagged (Pyrococcus furiosus, UniProt Q8U1S6 213-871)
T1 sequence (looked up): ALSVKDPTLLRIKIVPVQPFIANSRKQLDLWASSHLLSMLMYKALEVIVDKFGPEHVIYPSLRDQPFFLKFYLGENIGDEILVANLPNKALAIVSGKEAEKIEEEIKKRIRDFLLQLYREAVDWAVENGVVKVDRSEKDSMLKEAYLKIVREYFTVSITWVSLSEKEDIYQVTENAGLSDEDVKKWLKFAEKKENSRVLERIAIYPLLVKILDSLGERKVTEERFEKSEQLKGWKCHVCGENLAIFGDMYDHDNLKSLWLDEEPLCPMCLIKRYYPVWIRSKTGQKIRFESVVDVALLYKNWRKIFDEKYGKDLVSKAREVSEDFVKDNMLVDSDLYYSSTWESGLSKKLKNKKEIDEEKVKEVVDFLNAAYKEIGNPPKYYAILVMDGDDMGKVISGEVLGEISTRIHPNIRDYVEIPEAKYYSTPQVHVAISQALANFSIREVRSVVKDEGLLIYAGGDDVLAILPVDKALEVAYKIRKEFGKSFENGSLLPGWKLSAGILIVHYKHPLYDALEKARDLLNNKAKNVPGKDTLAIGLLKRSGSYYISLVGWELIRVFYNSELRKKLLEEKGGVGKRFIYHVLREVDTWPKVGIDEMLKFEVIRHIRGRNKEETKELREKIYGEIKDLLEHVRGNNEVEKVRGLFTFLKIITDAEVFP
Experiment: crystal structure

B1: Pf Cmr3 (Pf1128), untagged (natural protein, Pyrococcus furiosus)
chain: MIEVTFTPYDVLLFRESRPFDAGSESVARSIIPLPQTVAGAIRTLLFYKGLKNCVGVGEEEPEFTLVGIAIGTEKGRIYPLPFNIIKSEKFYKVVNPGRFLGKLILPPKGKYKSGYVTESILEKYLKGELKEVEENKVIRIEKEKRIGIKLSREKKVVEEGMLYTVEFLRIEKIYAWIEDPGCGIKDILSSYEFLTLGGESRVAFVEVDDKTPDIFNRELGSTKKALFYFSTPTIGKVGEIVQELEKRLNAKIDDYLLVSSRPTAISGWDMHEKKPKGTKFAIPPGSVLFVEFKEEVEVPPYIKLGKLKKLGYGLALGGIWE
- stoichiometry N: 1 Cmr3:Cmr2dHD

Reference: article PMC3606058 (Structure (London, England : 1993), 2013)
